Test results published in publication PMC9482650, “Quantitative fragmentomics allow affinity mapping of interactomes” (Nature Communications, 2022).
One block for each binder: values may come before it.

How the values were obtained:
Test in all cases: holdup assay
Parameters in all cases: key: below the threshold = too weak to quantify, mostly under pKd 3.1 to 4
AHNAK1, Q09666 = biological target: AHNAK1, Q09666
ARHGEF11, O15085 = biological target: T1, ARHGEF11, O15085
T1 sequence (O15085 42-136, limits assumed, looked up): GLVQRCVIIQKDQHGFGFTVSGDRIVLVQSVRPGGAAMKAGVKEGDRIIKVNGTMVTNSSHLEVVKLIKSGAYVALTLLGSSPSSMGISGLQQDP

DFNB31_2, Q9P202 = biological target: T2, DFNB31_2, Q9P202
T2 sequence (Q9P202 274-371, limits assumed, looked up): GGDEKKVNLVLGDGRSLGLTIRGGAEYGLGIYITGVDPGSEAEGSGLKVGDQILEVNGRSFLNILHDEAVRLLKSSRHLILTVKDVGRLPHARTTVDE

GRASP, Q7Z6J2 = biological target: GRASP, Q7Z6J2
GRIP1_2, Q9Y3R0 = biological target: T3, GRIP1_2, Q9Y3R0
T3 sequence (Q9Y3R0 145-248, limits assumed, looked up): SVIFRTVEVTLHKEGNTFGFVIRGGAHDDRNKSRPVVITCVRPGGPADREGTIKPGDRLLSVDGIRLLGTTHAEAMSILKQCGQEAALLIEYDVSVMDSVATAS

GRIP2_3, Q9C0E4 = biological target: GRIP2_3, Q9C0E4
HTRA1, Q92743 = biological target: HTRA1, Q92743
Inadl_10, Q8NI35 = biological target: Inadl_10, Q8NI35
Inadl_3, Q8NI35 = biological target: Inadl_3, Q8NI35
Inadl_4, Q8NI35 = biological target: Inadl_4, Q8NI35
Inadl_5, Q8NI35 = biological target: Inadl_5, Q8NI35
Inadl_8, Q8NI35 = biological target: Inadl_8, Q8NI35
LAP2, Q96RT1 = biological target: LAP2, Q96RT1
LIN7B, Q9HAP6 = biological target: T4, LIN7B, Q9HAP6
T4 sequence (Q9HAP6 88-185, limits assumed, looked up): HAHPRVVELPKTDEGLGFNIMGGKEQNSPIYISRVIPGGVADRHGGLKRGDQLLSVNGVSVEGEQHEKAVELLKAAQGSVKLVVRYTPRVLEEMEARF

LNX2_3, Q8N448 = biological target: T5, LNX2_3, Q8N448
T5 sequence (Q8N448 463-564, limits assumed, looked up): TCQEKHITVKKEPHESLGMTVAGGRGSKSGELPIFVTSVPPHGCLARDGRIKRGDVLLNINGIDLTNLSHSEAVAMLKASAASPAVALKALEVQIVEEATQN

MAGI3_2, Q5TCQ9 = biological target: MAGI3_2, Q5TCQ9
PARD3_3, Q8TEW0 = biological target: PARD3_3, Q8TEW0
PDZD2_2, O15018 = biological target: T6, PDZD2_2, O15018
T6 sequence (O15018 329-429, limits assumed, looked up): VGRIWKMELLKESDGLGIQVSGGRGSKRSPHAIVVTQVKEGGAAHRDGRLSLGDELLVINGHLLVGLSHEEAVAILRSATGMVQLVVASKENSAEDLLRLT

PDZRN3_1, Q9UPQ7 = biological target: T7, PDZRN3_1, Q9UPQ7
T7 sequence (Q9UPQ7 244-349, limits assumed, looked up): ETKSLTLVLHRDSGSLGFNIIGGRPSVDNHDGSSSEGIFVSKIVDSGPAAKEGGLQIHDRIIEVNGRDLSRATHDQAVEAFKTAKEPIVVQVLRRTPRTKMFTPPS

PICK1, Q9NRD5 = biological target: PICK1, Q9NRD5
PTPN13_1, Q12923 = biological target: T8, PTPN13_1, Q12923
T8 sequence (Q12923 1088-1188, limits assumed, looked up): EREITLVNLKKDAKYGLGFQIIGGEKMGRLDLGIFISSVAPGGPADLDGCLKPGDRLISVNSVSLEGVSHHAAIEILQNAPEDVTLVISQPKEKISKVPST

SCRIB_2, Q14160 = biological target: SCRIB_2, Q14160
SHANK1, Q9Y566 = biological target: T9, SHANK1, Q9Y566
T9 sequence (Q9Y566 658-767, limits assumed, looked up): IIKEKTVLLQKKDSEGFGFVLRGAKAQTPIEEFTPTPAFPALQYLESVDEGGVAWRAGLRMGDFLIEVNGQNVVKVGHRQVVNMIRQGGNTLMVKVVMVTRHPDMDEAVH

SNTB1, Q13884 = biological target: T10, SNTB1, Q13884
T10 sequence (Q13884 107-205, limits assumed, looked up): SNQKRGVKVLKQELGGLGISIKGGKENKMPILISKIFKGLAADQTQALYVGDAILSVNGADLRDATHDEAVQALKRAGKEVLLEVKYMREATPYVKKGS

TJP2_1, Q9UDY2 = biological target: TJP2_1, Q9UDY2
TX1BP3, O14907 = biological target: T11, TX1BP3, O14907
T11 sequence (O14907 10-122, limits assumed, looked up): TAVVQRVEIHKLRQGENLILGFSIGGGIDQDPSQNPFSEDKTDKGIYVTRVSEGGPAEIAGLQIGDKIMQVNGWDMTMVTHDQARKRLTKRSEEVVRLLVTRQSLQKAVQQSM

[1] = plain residues with an end cap or a label only (N-terminal biotin on a linker: ahx)
[2] = plain residues with an end cap or a label only (N-terminal biotin on a linker: ado-ado)

Chain of LAP2, Q96RT1 (Q96RT1 other isoform, or with tags, fused parts or gaps): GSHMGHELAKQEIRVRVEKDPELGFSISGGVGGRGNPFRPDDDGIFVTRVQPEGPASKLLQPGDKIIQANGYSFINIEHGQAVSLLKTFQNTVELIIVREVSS
Chain of HTRA1, Q92743 (Q92743 360-477): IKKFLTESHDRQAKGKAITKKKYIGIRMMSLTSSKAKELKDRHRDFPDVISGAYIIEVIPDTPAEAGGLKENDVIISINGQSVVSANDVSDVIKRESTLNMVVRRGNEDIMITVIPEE
Chain of PICK1, Q9NRD5 (Q9NRD5 17-115): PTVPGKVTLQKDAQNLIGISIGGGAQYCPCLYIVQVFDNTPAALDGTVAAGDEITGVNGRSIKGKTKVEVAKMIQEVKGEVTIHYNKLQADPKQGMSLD
Chain of Inadl_5, Q8NI35 (Q8NI35 673-780): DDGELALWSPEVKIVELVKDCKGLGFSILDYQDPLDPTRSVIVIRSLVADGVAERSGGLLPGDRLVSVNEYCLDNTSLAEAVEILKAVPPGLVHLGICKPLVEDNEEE
Chain of PARD3_3, Q8TEW0 (Q8TEW0 582-685): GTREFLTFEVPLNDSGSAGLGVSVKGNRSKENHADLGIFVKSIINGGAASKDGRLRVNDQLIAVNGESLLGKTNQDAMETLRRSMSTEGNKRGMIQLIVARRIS
Chain of MAGI3_2, Q5TCQ9 (Q5TCQ9 398-503): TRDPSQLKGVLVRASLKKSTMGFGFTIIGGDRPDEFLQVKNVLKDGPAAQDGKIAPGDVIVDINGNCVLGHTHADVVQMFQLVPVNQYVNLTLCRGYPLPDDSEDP
Chain of GRASP, Q7Z6J2 (Q7Z6J2 96-193): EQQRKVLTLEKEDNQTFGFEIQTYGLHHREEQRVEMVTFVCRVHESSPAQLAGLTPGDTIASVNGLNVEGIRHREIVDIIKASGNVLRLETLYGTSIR
Chain of Inadl_8, Q8NI35 (Q8NI35 1425-1530): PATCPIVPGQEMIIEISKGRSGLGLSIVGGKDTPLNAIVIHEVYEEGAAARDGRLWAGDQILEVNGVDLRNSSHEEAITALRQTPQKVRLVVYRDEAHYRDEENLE
Chain of AHNAK1, Q09666 (Q09666 4-100): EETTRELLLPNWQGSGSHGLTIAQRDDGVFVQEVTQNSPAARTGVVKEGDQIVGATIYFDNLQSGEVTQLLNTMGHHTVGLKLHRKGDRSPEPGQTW
Chain of Inadl_10, Q8NI35 (Q8NI35 1673-1763): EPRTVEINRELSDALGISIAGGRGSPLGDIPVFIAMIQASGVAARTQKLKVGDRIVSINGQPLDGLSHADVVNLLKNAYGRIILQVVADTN
Chain of Inadl_3, Q8NI35 (Q8NI35 359-469): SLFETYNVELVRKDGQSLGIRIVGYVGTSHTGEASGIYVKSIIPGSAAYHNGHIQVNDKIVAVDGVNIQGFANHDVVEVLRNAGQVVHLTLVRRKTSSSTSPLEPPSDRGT
Chain of GRIP2_3, Q9C0E4 (Q9C0E4 238-339): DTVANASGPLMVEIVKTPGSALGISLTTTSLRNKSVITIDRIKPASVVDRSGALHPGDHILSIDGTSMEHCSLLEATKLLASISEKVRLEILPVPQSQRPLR
Chain of TJP2_1, Q9UDY2 (Q9UDY2 24-128): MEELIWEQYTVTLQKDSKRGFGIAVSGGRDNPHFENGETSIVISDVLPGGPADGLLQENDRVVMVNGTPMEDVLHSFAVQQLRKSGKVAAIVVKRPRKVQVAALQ
Chain of SCRIB_2, Q14160 (Q14160 857-960): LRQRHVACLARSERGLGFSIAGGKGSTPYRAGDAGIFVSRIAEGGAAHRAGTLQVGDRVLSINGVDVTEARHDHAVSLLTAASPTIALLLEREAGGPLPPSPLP
Chain of Inadl_4, Q8NI35 (Q8NI35 547-651): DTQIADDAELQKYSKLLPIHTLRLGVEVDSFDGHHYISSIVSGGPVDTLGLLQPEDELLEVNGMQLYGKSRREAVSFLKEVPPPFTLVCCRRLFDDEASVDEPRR

- pKd (AHNAK1, Q09666; [1]): below the threshold
- pKd (ARHGEF11, O15085; [1]): below the threshold
- pKd (DFNB31_2, Q9P202; [1]): below the threshold
- pKd (GRASP, Q7Z6J2; [1]): 3.95
- pKd (GRIP1_2, Q9Y3R0; [1]): below the threshold
- pKd (GRIP2_3, Q9C0E4; [1]): below the threshold
- pKd (HTRA1, Q92743; [1]): below the threshold
- pKd (Inadl_10, Q8NI35; [1]): 3.6
- pKd (Inadl_3, Q8NI35; [1]): 3.64
- pKd (Inadl_4, Q8NI35; [1]): below the threshold
- pKd (Inadl_5, Q8NI35; [1]): below the threshold
- pKd (Inadl_8, Q8NI35; [1]): 4.18
- pKd (LAP2, Q96RT1; [1]): below the threshold
- pKd (LIN7B, Q9HAP6; [1]): below the threshold
- pKd (LNX2_3, Q8N448; [1]): below the threshold
- pKd (MAGI3_2, Q5TCQ9; [1]): below the threshold
- pKd (PARD3_3, Q8TEW0; [1]): below the threshold
- pKd (PDZD2_2, O15018; [1]): 4.1
- pKd (PDZRN3_1, Q9UPQ7; [1]): below the threshold
- pKd (PICK1, Q9NRD5; [1]): below the threshold
- pKd (PTPN13_1, Q12923; [1]): below the threshold
- pKd (SCRIB_2, Q14160; [1]): below the threshold
- pKd (SHANK1, Q9Y566; [1]): below the threshold
- pKd (SNTB1, Q13884; [1]): below the threshold
- pKd (TJP2_1, Q9UDY2; [1]): below the threshold
- pKd (TX1BP3, O14907; [1]): below the threshold
Binder: TESNLQTSSC [CGN, Q9P2M7]

- pKd (AHNAK1, Q09666; [2]): below the threshold
- pKd (ARHGEF11, O15085; [2]): 3.9
- pKd (DFNB31_2, Q9P202; [2]): below the threshold
- pKd (GRASP, Q7Z6J2; [2]): below the threshold
- pKd (GRIP1_2, Q9Y3R0; [2]): below the threshold
- pKd (GRIP2_3, Q9C0E4; [2]): below the threshold
- pKd (HTRA1, Q92743; [2]): 4.14
- pKd (Inadl_10, Q8NI35; [2]): below the threshold
- pKd (Inadl_3, Q8NI35; [2]): below the threshold
- pKd (Inadl_4, Q8NI35; [2]): below the threshold
- pKd (Inadl_5, Q8NI35; [2]): 3.49
- pKd (Inadl_8, Q8NI35; [2]): 4.13
- pKd (LAP2, Q96RT1; [2]): below the threshold
- pKd (LIN7B, Q9HAP6; [2]): below the threshold
- pKd (LNX2_3, Q8N448; [2]): below the threshold
- pKd (MAGI3_2, Q5TCQ9; [2]): below the threshold
- pKd (PARD3_3, Q8TEW0; [2]): 3.52
- pKd (PDZD2_2, O15018; [2]): 4.95
- pKd (PDZRN3_1, Q9UPQ7; [2]): below the threshold
- pKd (PICK1, Q9NRD5; [2]): below the threshold
- pKd (PTPN13_1, Q12923; [2]): below the threshold
- pKd (SCRIB_2, Q14160; [2]): below the threshold
- pKd (SHANK1, Q9Y566; [2]): below the threshold
- pKd (SNTB1, Q13884; [2]): below the threshold
- pKd (TJP2_1, Q9UDY2; [2]): 3.94
- pKd (TX1BP3, O14907; [2]): below the threshold
Binder: GTGYDRKDYV [CLDN3, O15551]

- pKd (AHNAK1, Q09666; [2]): below the threshold
- pKd (ARHGEF11, O15085; [2]): below the threshold
- pKd (DFNB31_2, Q9P202; [2]): below the threshold
- pKd (GRASP, Q7Z6J2; [2]): below the threshold
- pKd (GRIP1_2, Q9Y3R0; [2]): below the threshold
- pKd (GRIP2_3, Q9C0E4; [2]): below the threshold
- pKd (HTRA1, Q92743; [2]): 4.61
- pKd (Inadl_10, Q8NI35; [2]): below the threshold
- pKd (Inadl_3, Q8NI35; [2]): 3.59
- pKd (Inadl_4, Q8NI35; [2]): below the threshold
- pKd (Inadl_5, Q8NI35; [2]): below the threshold
- pKd (Inadl_8, Q8NI35; [2]): below the threshold
- pKd (LAP2, Q96RT1; [2]): below the threshold
- pKd (LIN7B, Q9HAP6; [2]): 3.7
- pKd (LNX2_3, Q8N448; [2]): below the threshold
- pKd (MAGI3_2, Q5TCQ9; [2]): below the threshold
- pKd (PARD3_3, Q8TEW0; [2]): 4.97
- pKd (PDZD2_2, O15018; [2]): 4.37
- pKd (PDZRN3_1, Q9UPQ7; [2]): below the threshold
- pKd (PICK1, Q9NRD5; [2]): 4.01
- pKd (PTPN13_1, Q12923; [2]): below the threshold
- pKd (SCRIB_2, Q14160; [2]): below the threshold
- pKd (SHANK1, Q9Y566; [2]): below the threshold
- pKd (SNTB1, Q13884; [2]): below the threshold
- pKd (TJP2_1, Q9UDY2; [2]): below the threshold
- pKd (TX1BP3, O14907; [2]): below the threshold
Binder: RSSGGDDFWF [KCNV1, Q6PIU1]

- pKd (AHNAK1, Q09666; [1]): below the threshold
- pKd (ARHGEF11, O15085; [1]): below the threshold
- pKd (DFNB31_2, Q9P202; [1]): below the threshold
- pKd (GRASP, Q7Z6J2; [1]): below the threshold
- pKd (GRIP1_2, Q9Y3R0; [1]): below the threshold
- pKd (GRIP2_3, Q9C0E4; [1]): below the threshold
- pKd (HTRA1, Q92743; [1]): below the threshold
- pKd (Inadl_10, Q8NI35; [1]): below the threshold
- pKd (Inadl_3, Q8NI35; [1]): below the threshold
- pKd (Inadl_4, Q8NI35; [1]): below the threshold
- pKd (Inadl_5, Q8NI35; [1]): below the threshold
- pKd (Inadl_8, Q8NI35; [1]): below the threshold
- pKd (LAP2, Q96RT1; [1]): below the threshold
- pKd (LIN7B, Q9HAP6; [1]): below the threshold
- pKd (LNX2_3, Q8N448; [1]): below the threshold
- pKd (MAGI3_2, Q5TCQ9; [1]): below the threshold
- pKd (PARD3_3, Q8TEW0; [1]): below the threshold
- pKd (PDZD2_2, O15018; [1]): below the threshold
- pKd (PDZRN3_1, Q9UPQ7; [1]): below the threshold
- pKd (PICK1, Q9NRD5; [1]): below the threshold
- pKd (PTPN13_1, Q12923; [1]): below the threshold
- pKd (SCRIB_2, Q14160; [1]): below the threshold
- pKd (SHANK1, Q9Y566; [1]): below the threshold
- pKd (SNTB1, Q13884; [1]): below the threshold
- pKd (TJP2_1, Q9UDY2; [1]): below the threshold
- pKd (TX1BP3, O14907; [1]): below the threshold
Binder: APSRKLNTEI [TIAM1, Q13009]

- pKd (AHNAK1, Q09666; [2]): below the threshold
- pKd (ARHGEF11, O15085; [2]): 4.38
- pKd (DFNB31_2, Q9P202; [2]): below the threshold
- pKd (GRASP, Q7Z6J2; [2]): 4.66
- pKd (GRIP1_2, Q9Y3R0; [2]): below the threshold
- pKd (GRIP2_3, Q9C0E4; [2]): below the threshold
- pKd (HTRA1, Q92743; [2]): 4.4
- pKd (Inadl_10, Q8NI35; [2]): 3.61
- pKd (Inadl_3, Q8NI35; [2]): below the threshold
- pKd (Inadl_4, Q8NI35; [2]): below the threshold
- pKd (Inadl_5, Q8NI35; [2]): below the threshold
- pKd (Inadl_8, Q8NI35; [2]): 4.2
- pKd (LAP2, Q96RT1; [2]): 4.02
- pKd (LIN7B, Q9HAP6; [2]): below the threshold
- pKd (LNX2_3, Q8N448; [2]): below the threshold
- pKd (MAGI3_2, Q5TCQ9; [2]): 4.27
- pKd (PARD3_3, Q8TEW0; [2]): 3.54
- pKd (PDZD2_2, O15018; [2]): 4.18
- pKd (PDZRN3_1, Q9UPQ7; [2]): 3.55
- pKd (PICK1, Q9NRD5; [2]): below the threshold
- pKd (PTPN13_1, Q12923; [2]): below the threshold
- pKd (SCRIB_2, Q14160; [2]): 4.12
- pKd (SHANK1, Q9Y566; [2]): 5.05
- pKd (SNTB1, Q13884; [2]): 4.37
- pKd (TJP2_1, Q9UDY2; [2]): 3.6
- pKd (TX1BP3, O14907; [2]): 4.06
Binder: RDPPAEWTRV [PTPN18, Q99952]
